Positions count from the first letter of the chain named. Where no end group is shown, it is not given here. fluorescein = fluorescein, a fluorescent label on the peptide N-terminus
Columns and labels:
Assay in all cases: fluorescence polarisation
DegS F220A/H198P = molecular target: T1, DegS F220A/H198P (E. coli, UniProt P0AEE3 27-355, F220A | H198P)
T1 sequence (looked up): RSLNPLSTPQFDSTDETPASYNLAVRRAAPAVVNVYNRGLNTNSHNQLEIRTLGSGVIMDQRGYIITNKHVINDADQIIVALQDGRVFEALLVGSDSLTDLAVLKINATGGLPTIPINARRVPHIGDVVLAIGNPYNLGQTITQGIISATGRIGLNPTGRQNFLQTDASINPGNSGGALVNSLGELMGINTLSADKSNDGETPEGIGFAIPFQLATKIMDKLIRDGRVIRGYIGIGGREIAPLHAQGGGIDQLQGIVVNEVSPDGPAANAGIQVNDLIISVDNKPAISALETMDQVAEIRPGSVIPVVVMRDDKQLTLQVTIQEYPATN

DegS Q187A/H198P = molecular target: T2, DegS Q187A/H198P (E. coli, UniProt P0AEE3 27-355, Q187A | H198P)
T2 sequence (looked up): T1 sequence (looked up) with Q161A, A194F

DegS L164A/H198P = molecular target: T3, DegS L164A/H198P (E. coli, UniProt P0AEE3 27-355, L164A | H198P)
T3 sequence (looked up): T1 sequence (looked up) with L138A, A194F

DegS E230A = molecular target: T4, DegS E230A (E. coli, UniProt P0AEE3 27-355, E230A)
T4 sequence (looked up): T1 sequence (looked up) with P172H, A194F, E204A

[1] = molecular target: T5, wild-type DegS (residues 27-355, without the membrane anchor) (E. coli, UniProt P0AEE3 27-355)
T5 sequence (looked up): T1 sequence (looked up) with P172H, A194F

fluorescein-DNRDGNVYYF [fluorescent OMP peptide fluorescein-DNRDGNVYYF] gave a Kd (DegS F220A/H198P) of 1600 ± 100 nM, a Kd (DegS Q187A/H198P) of 1500 ± 100 nM and a Kd (DegS L164A/H198P) of 2500 ± 500 nM. It also gave a Kd (DegS E230A) of 5700 ± 1300 nM and a Kd [1] of 4000 ± 400 nM.

Reference: article PMC4351158 (Structure (London, England : 1993), 2015)
